According to the supplement of paper PMC10126150:
± gives the standard deviation of the averaged measurements.

test system: ATP; experiment: switch fluorescence ratio, 500 uM ATP over buffer (Cy3 cluster intensity, sum of 5 cycles each) (fold (ratio)); higher = stronger signal-on switching upon ATP binding; sequences stand for … in TCGTCGGCAGCGTCAGATGTGTATAAGAGACAGTTTTTTTTTTTTTTTTTTTTTTTTT…TC; settings: aptamer strand: ATP DNA aptamer (quencher-CACCTGGGGGAGTATTGCGGAGGAAGG + anchor), 100 nM annealed; ATP concentration: 500 uM
Summary of the method: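 Cy3-labelled switching-strand clusters on a modified Illumina MiSeq flow-cell were annealed to 100 nM quencher-labelled ATP aptamer, imaged in selection buffer, then imaged after 15 min with 500 uM ATP at 22 °C. Five buffer/ATP cycles ran, with NaOH stripping and re-annealing between them. The fluorescence ratio is summed target-cycle over summed buffer-cycle Cy3 intensity per cluster, averaged per switch-domain sequence. Clusters outside 100-1000 RFU were excluded.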
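Further: ATP exposure 15 min at 22 °C before imaging.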

| Sequence | switch fluorescence ratio |
| --- | --- |
| CCGATGGGGA | 1.156 ± 0.0049 |
| CCGATGGGGG | 1.01 ± 0.025 |
| CCGATTATTT | 0.997 ± 0.015 |
| CCGCAGGGTT | 1.51 ± 0.58 |
| CCGCCTTGTT | 1.11 ± 0.044 |
| CCGCGGGTTC | 1.55 ± 0.45 |
| CCGGAAGGGG | 1.06 ± 0.02 |
| CCGGACCACG | 1.01 ± 0.029 |
| CCGGACCCAA | 1.75 ± 0.23 |
| CCGGACGCGT | 1.52 ± 0.26 |
| CCGGAGAGGT | 2.28 ± 0.23 |
| CCGGAGATTT | 1.57 ± 0.028 |
| CCGGAGGGGG | 1.05 ± 0.02 |
| CCGGATCGCG | 1.043 ± 0.0047 |
| CCGGATGGAG | 1.02 ± 0.036 |
| CCGGCGGGG | 1.04 ± 0.027 |
| CCGGCTGGTG | 1.197 ± 0.0056 |
| CCGGGAAATT | 1.22 ± 0.36 |
| CCGGGAAGGC | 2.043 ± 0.0097 |
| CCGGGAGTTG | 1.01 ± 0.024 |
| CCGGGATGGG | 1.03 ± 0.022 |
| CCGGGCGGTG | 1.04 ± 0.021 |
| CCGGGCTGGA | 1.08 ± 0.074 |
| CCGGGGCACT | 1.34 ± 0.26 |
| CCGGGGCCTA | 1.05 ± 0.026 |

| Sequence | switch fluorescence ratio |
| --- | --- |
| CCGGGGGGTG | 1.07 ± 0.066 |
| CCGGGGTAAG | 1.03 ± 0.029 |
| CCGGGTAGTA | 1.12 ± 0.11 |
| CCGGGTGGG | 1.01 ± 0.062 |
| CCGGGTGTTT | 1.63 ± 0.75 |
| CCGGGTTGGG | 1.02 ± 0.036 |
| CCGGGTTTAC | 1.621 ± 0.013 |
| CCGGTGCGGC | 1.48 ± 0.23 |
| CCGGTGCTCG | 1.04 ± 0.047 |
| CCGGTTACAG | 1.07 ± 0.0078 |
| CCGGTTGAGA | 1 ± 0.016 |
| CCGGTTTTTG | 1.01 ± 0.05 |
| CCGTAACGGA | 0.972 ± 0.012 |
| CCGTAAGGAA | 1.06 ± 0.11 |
| CCGTAGCGTT | 6.12 ± 1.5 |
| CCGTAGGGCT | 1.05 ± 0.042 |
| CCGTATCCCT | 1.03 ± 0.043 |
| CCGTATTGGT | 1.03 ± 0.039 |
| CCGTCAGGCG | 1.039 ± 0.0067 |
| CCGTCCGGTT | 1.16 ± 0.018 |
| CCGTCTACTG | 1.04 ± 0.013 |
| CCGTGCACGG | 0.978 ± 0.021 |
| CCGTGCAGTA | 3.14 ± 1.2 |
| CCGTGGGGTA | 0.974 ± 0.031 |
| CCGTGTATGT | 1.045 ± 0.0062 |

| Sequence | switch fluorescence ratio |
| --- | --- |
| CCGTGTGACT | 1.08 ± 0.042 |
| CCGTGTTCTA | 1.03 ± 0.063 |
| CCGTGTTGCT | 1.12 ± 0.061 |
| CCGTTACATG | 1.05 ± 0.017 |
| CCGTTCTTAC | 2.84 ± 1.1 |
| CCGTTGAAGG | 1.01 ± 0.016 |
| CCGTTGAGGG | 1.01 ± 0.086 |
| CCGTTGCGTG | 1 ± 0.036 |
| CCGTTGCTTT | 1.35 ± 0.14 |
| CCGTTGGTGG | 0.983 ± 0.024 |
| CCGTTGTGAA | 1.043 ± 0.0012 |
| CCGTTTAAAA | 1.11 ± 0.15 |
| CCGTTTAGGG | 0.999 ± 0.016 |
| CCGTTTTTGG | 0.993 ± 0.016 |
| CCTAACCTCT | 1.01 ± 0.032 |
| CCTAATGAA | 1.2 ± 0.28 |
| CCTAATGTAA | 1.08 ± 0.027 |
| CCTACATGTG | 1.26 ± 0.11 |
| CCTACCGTGG | 1.31 ± 0.11 |
| CCTACGGGCC | 2.16 ± 0.12 |
| CCTAGATAAC | 1.16 ± 0.039 |
| CCTAGGGCGG | 1.006 ± 0.0011 |
| CCTAGGGGAG | 1.04 ± 0.04 |
| CCTAGGGGGA | 1.05 ± 0.021 |
| CCTAGGGTGG | 1.03 ± 0.069 |

| Sequence | switch fluorescence ratio |
| --- | --- |
| CCTAGGGTTA | 1.01 ± 0.074 |
| CCTAGGTTTC | 0.981 ± 0.035 |
| CCTATAGTAC | 1.69 ± 0.05 |
| CCTATCGAAT | 1.97 ± 1.1 |
| CCTATCGTTG | 1.08 ± 0.0056 |
| CCTATTAAAC | 1.04 ± 0.036 |
| CCTCACAGTT | 1.24 ± 0.096 |
| CCTCAGACAG | 1.58 ± 0.052 |
| CCTCAGCAGA | 3.75 ± 0.53 |
| CCTCATGCCA | 2.3 ± 0.11 |
| CCTCGAGACT | 1.43 ± 0.032 |
| CCTCGGCGGT | 2.47 ± 1.7 |
| CCTCGGTTGG | 1.011 ± 0.0035 |
| CCTCGTTAGC | 2.63 ± 0.13 |
| CCTCTATGAT | 1.42 ± 0.044 |
| CCTCTGGGAT | 2.24 ± 1.7 |
| CCTGAAGGCA | 1 ± 0.011 |
| CCTGAGGGTT | 0.985 ± 0.0069 |
| CCTGATAATT | 1.02 ± 0.02 |
| CCTGATAGCG | 1.05 ± 0.03 |
| CCTGGATTGC | 1.24 ± 0.093 |
| CCTGGCTTTT | 1.047 ± 0.007 |
| CCTGGGCAAG | 3.81 ± 0.36 |
| CCTGGGCCTT | 1.01 ± 0.025 |
| CCTGGGGAAT | 1.91 ± 1.1 |

| Sequence | switch fluorescence ratio |
| --- | --- |
| CCTGGGGCTG | 1.12 ± 0.14 |
| CCTGGGGGGT | 1.06 ± 0.13 |
| CCTGGGTAGC | 1.1 ± 0.045 |
| CCTGTAATGT | 1.12 ± 0.042 |
| CCTGTAGGCC | 0.998 ± 0.027 |
| CCTGTGGACG | 0.914 ± 0.048 |
| CCTGTGTAGC | 1.092 ± 0.0031 |
| CCTGTTCGCT | 1.21 ± 0.014 |
| CCTGTTCGGC | 1.02 ± 0.038 |
| CCTGTTGGGG | 0.991 ± 0.039 |
| CCTGTTTTTT | 1.02 ± 0.022 |
| CCTTAATTTT | 1.01 ± 0.019 |
| CCTTAGTGTT | 1.03 ± 0.015 |
| CCTTCTGCCG | 1.203 ± 0.0042 |
| CCTTCTGGGG | 1.12 ± 0.051 |
| CCTTGAAAGG | 1 ± 0.011 |
| CCTTGAATCG | 0.978 ± 0.023 |
| CCTTGAGGGA | 1.06 ± 0.11 |
| CCTTGGACGG | 1.03 ± 0.02 |
| CCTTGGATTG | 0.9851 ± 0.0018 |
| CCTTGGGACG | 0.992 ± 0.062 |
| CCTTGGTCTT | 0.9979 ± 0.009 |
| CCTTGTGCAG | 1.25 ± 0.018 |
| CCTTGTTATC | 1.1 ± 0.1 |
| CCTTTCGGCT | 1.068 ± 0.0038 |

| Sequence | switch fluorescence ratio |
| --- | --- |
| CCTTTGGAGG | 0.981 ± 0.016 |
| CCTTTGGTTA | 1.03 ± 0.028 |
| CCTTTGGTTT | 0.982 ± 0.013 |
| CCTTTTACTT | 1.03 ± 0.032 |
| CCTTTTGGGG | 1.03 ± 0.061 |
| CCTTTTTGTC | 1.12 ± 0.06 |
| CCTTTTTTAT | 1.03 ± 0.085 |
| CCTTTTTTTT | 1.01 ± 0.011 |
| CGAAAAGGAG | 1.01 ± 0.015 |
| CGAAAATCTT | 0.9949 ± 0.0095 |
| CGAAACTTTG | 0.974 ± 0.046 |
| CGAAAGCGGC | 1.23 ± 0.014 |
| CGAAATCGGG | 1.02 ± 0.018 |
| CGAACCGGCG | 1.03 ± 0.017 |
| CGAACGCCTG | 1.1 ± 0.036 |
| CGAACTGAGG | 0.985 ± 0.014 |
| CGAACTGCGT | 1.02 ± 0.034 |
| CGAAGAGGTG | 1.07 ± 0.021 |
| CGAAGCTTTT | 1.089 ± 0.003 |
| CGAAGGAATC | 1.78 ± 1.1 |
| CGAAGGATTT | 1.003 ± 0.0041 |
| CGAAGGCGTG | 1 ± 0.018 |
| CGAAGGGGAA | 1.03 ± 0.099 |
| CGAAGGGGTA | 0.987 ± 0.018 |
| CGAAGGTTAG | 0.987 ± 0.024 |

| Sequence | switch fluorescence ratio |
| --- | --- |
| CGAAGGTTGC | 1.01 ± 0.04 |
| CGAAGGTTTG | 0.945 ± 0.058 |
| CGAAGTCGGG | 0.955 ± 0.015 |
| CGAAGTCGTC | 1.02 ± 0.021 |
| CGAAGTCTTT | 0.989 ± 0.044 |
| CGAAGTTATA | 1.19 ± 0.038 |
| CGAATATAAA | 0.994 ± 0.054 |
| CGAATATACG | 1.04 ± 0.021 |
| CGAATATCAT | 0.9747 ± 0.0047 |
| CGAATATGAT | 1.02 ± 0.058 |
| CGAATATTGA | 0.959 ± 0.038 |
| CGAATTGATA | 1.01 ± 0.013 |
| CGAATTTGCT | 1.01 ± 0.0079 |
| CGACAAAAAT | 1.89 ± 1 |
| CGACACCGTG | 1.025 ± 0.0013 |
| CGACACTTAG | 1.049 ± 0.0091 |
| CGACATCGCA | 1.321 ± 0.0068 |
| CGACATGAAT | 1.037 ± 0.0082 |
| CGACATTGAG | 0.967 ± 0.012 |
| CGACATTGCA | 1.09 ± 0.022 |
| CGACCAGATA | 1.078 ± 0.0037 |
| CGACCATTAA | 1.264 ± 0.0043 |
| CGACCCTGGA | 1.105 ± 0.01 |
| CGACCTTGGC | 1.02 ± 0.1 |
| CGACGAATAG | 1.29 ± 0.063 |

| Sequence | switch fluorescence ratio |
| --- | --- |
| CGACGACAGG | 1.35 ± 0.024 |
| CGACGTATTG | 1.02 ± 0.03 |
| CGACGTTAGT | 0.995 ± 0.025 |
| CGACTAAAAT | 1.013 ± 0.0066 |
| CGACTATCGC | 1.12 ± 0.06 |
| CGACTGCAGT | 1.19 ± 0.014 |
| CGACTGGCTG | 1.01 ± 0.049 |
| CGAGAACTGG | 1.09 ± 0.14 |
| CGAGAAGTTC | 1.02 ± 0.091 |
| CGAGACAGGA | 1.007 ± 0.0017 |
| CGAGAGGTGG | 1.04 ± 0.055 |
| CGAGATTGGT | 0.973 ± 0.016 |
| CGAGCATTGA | 1.12 ± 0.012 |
| CGAGCATTGT | 1.16 ± 0.031 |
| CGAGCATTTA | 1.325 ± 0.012 |
| CGAGCGGCTA | 1.016 ± 0.0013 |
| CGAGCGGTTG | 0.999 ± 0.013 |
| CGAGCTCCAT | 1.015 ± 0.0054 |
| CGAGGAAAGG | 0.9865 ± 0.0089 |
| CGAGGAAATG | 1.06 ± 0.011 |
| CGAGGCAAGT | 5.07 ± 1.3 |
| CGAGGCTCGT | 1.02 ± 0.065 |
| CGAGGGATGT | 0.982 ± 0.034 |
| CGAGGGATTT | 1.05 ± 0.013 |
| CGAGGGCTAG | 1.04 ± 0.074 |
